Measured values as given in the supplement of paper PMC10567573.

B1: C10orf62 (parent)
chain: MLWVQRKRRRKETSECPSDKDKSP

Variants of: B1
Experiment: protein stability index of a GFP-peptide fusion (GPS, HEK-293T) (PSI 1-6); higher = more stable
Details: c terminus: a fixed tail appended
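Further: lentivirally expressed fusions sorted by FACS into six bins by GFP to DsRed ratio, PSI derived from sequencing read proportions per bin multiplied by bin number.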

Going from MLWVQRKRRRKETSHCPSDKDKSP [E15H] to MLWVIRKRRRKETSECPSDKDKSP [Q5I], the protein stability index falls from 2.92 to 2.21.

Going from MCWVQRKRRRKETSECPSDKDKSP [L2C] to MLWVQRKNRRKETSECPSDKDKSP [R8N], the protein stability index rises from 2.87 to 3.78.

First: MLWVQRKRRRKETSCCPSDKDKSP [E15C]
Second: MLWVQRKRRRKETHECPSDKDKSP [S14H]
The protein stability index of the first is higher: 3 for the first, 2.71 for the second.

Compared with MLWVQRKRRCKETSECPSDKDKSP [R10C], MEWVQRKRRRKETSECPSDKDKSP [L2E] is higher in protein stability index: 2.51 for the first, 4 for the second.

First: MLWVQRKRRRKETSECPSHKDKSP [D19H]
Second: MLWVQTKRRRKETSECPSDKDKSP [R6T]
The protein stability index of the first is lower: 2.77 for the first, 3.13 for the second.

First: MLWVQRKRRREETSECPSDKDKSP [K11E]
Second: MLWVQRKRRRKETSECPEDKDKSP [S18E]
The protein stability index of the first is higher: 3.06 for the first, 2.88 for the second.

Going from MLWVQDKRRRKETSECPSDKDKSP [R6D] to MLWVWRKRRRKETSECPSDKDKSP [Q5W], the protein stability index falls from 3.9 to 1.93.

First: MLWVQRKRRRKETSECPSDKEKSP [D21E]
Second: MLWVQRKRRRKETFECPSDKDKSP [S14F]
The protein stability index of the first is higher: 3.44 for the first, 3.12 for the second.

First: MLWVQRKRRRKETSECPSWKDKSP [D19W]
Second: MLTVQRKRRRKETSECPSDKDKSP [W3T]
The protein stability index of the first is lower: 1.65 for the first, 4.73 for the second.

First: MLWVQRKRRRKETSEQPSDKDKSP [C16Q]
Second: MLWVFRKRRRKETSECPSDKDKSP [Q5F]
The protein stability index of the first is higher: 3.75 for the first, 2.67 for the second.

First: MLWVQRKRRRKETSECMSDKDKSP [P17M]
Second: MLWVQRKRRRKETAECPSDKDKSP [S14A]
The protein stability index of the first is lower: 3.44 for the first, 3.82 for the second.

Going from MLWVQRKRRRKETSECPSDLDKSP [K20L] to MLWVKRKRRRKETSECPSDKDKSP [Q5K], the protein stability index rises from 3.01 to 4.1.

First: PLWVQRKRRRKETSECPSDKDKSP [M1P]
Second: MLWVQRKRRRKRTSECPSDKDKSP [E12R]
The protein stability index of the first is lower: 2.83 for the first, 3.7 for the second.

First: MLWHQRKRRRKETSECPSDKDKSP [V4H]
Second: MLWVQRKRRRKETSECPSDKFKSP [D21F]
The protein stability index of the first is higher: 3.86 for the first, 2.4 for the second.

Going from MLWVQRKRRRMETSECPSDKDKSP [K11M] to MLWVQRKRRRKETNECPSDKDKSP [S14N], the protein stability index rises from 2.71 to 3.14.

First: MLWVQRKRQRKETSECPSDKDKSP [R9Q]
Second: MYWVQRKRRRKETSECPSDKDKSP [L2Y]
The protein stability index of the first is higher: 3.2 for the first, 2.41 for the second.

First: MLWVQRKRRRKETSECPVDKDKSP [S18V]
Second: MLWVQRKRRRKETSECPSDYDKSP [K20Y]
The protein stability index of the first is lower: 2.9 for the first, 3.92 for the second.

Going from MLWVQRKRRRKETSECPSYKDKSP [D19Y] to MLWVQRKTRRKETSECPSDKDKSP [R8T], the protein stability index falls from 2.99 to 2.95.

Compared with MLWVQRKRRRKETSECPSDKDKAP [S23A], MLWVQRKRRRKETSECPSDKDKVP [S23V] is higher in protein stability index: 3.2 for the first, 3.58 for the second.

First: MLWVQKKRRRKETSECPSDKDKSP [R6K]
Second: VLWVQRKRRRKETSECPSDKDKSP [M1V]
The protein stability index of the first is lower: 3.13 for the first, 3.29 for the second.

Compared with MLWVQRKRRRKERSECPSDKDKSP [T13R], MLWVQRKRTRKETSECPSDKDKSP [R9T] is higher in protein stability index: 3.48 for the first, 3.49 for the second.

Going from MLWVQRDRRRKETSECPSDKDKSP [K7D] to MLWVQRKRRRKETSECPSDDDKSP [K20D], the protein stability index rises from 3.97 to 4.06.

Going from MLWVQRKRRRKETSECPSDKDVSP [K22V] to MLDVQRKRRRKETSECPSDKDKSP [W3D], the protein stability index rises from 3.63 to 4.99.

Going from MLWVQRKRRRKETSECPSDKDYSP [K22Y] to MLWVQRKRRRFETSECPSDKDKSP [K11F], the protein stability index falls from 3.12 to 2.73.

Going from HLWVQRKRRRKETSECPSDKDKSP [M1H] to WLWVQRKRRRKETSECPSDKDKSP [M1W], the protein stability index falls from 3.73 to 2.83.

Going from MLWVQRKRRRKDTSECPSDKDKSP [E12D] to MLWVQRKRRRKETSECPSSKDKSP [D19S], the protein stability index falls from 2.39 to 2.37.

First: MLWVQRKRRRKETSECPSFKDKSP [D19F]
Second: MLWYQRKRRRKETSECPSDKDKSP [V4Y]
The protein stability index of the first is lower: 2.57 for the first, 2.71 for the second.

First: MLWVQRKRRRKETSECPKDKDKSP [S18K]
Second: MLWVQRKRRRKETSEFPSDKDKSP [C16F]
The protein stability index of the first is higher: 2.77 for the first, 2.29 for the second.

Compared with MLWVQRKRRRKITSECPSDKDKSP [E12I], MLWVQRKRRRCETSECPSDKDKSP [K11C] is higher in protein stability index: 2.39 for the first, 2.46 for the second.

Compared with MLWVQRKRRRKETSECPSDKDKSM [P24M], KLWVQRKRRRKETSECPSDKDKSP [M1K] is higher in protein stability index: 2.46 for the first, 3.53 for the second.

First: MLWVQRKRRRKETSECHSDKDKSP [P17H]
Second: MLWVQRKRRWKETSECPSDKDKSP [R10W]
The protein stability index of the first is lower: 2.81 for the first, 2.89 for the second.

First: MLWVQRKRHRKETSECPSDKDKSP [R9H]
Second: MLWVQRKRRRKETSEPPSDKDKSP [C16P]
The protein stability index of the first is higher: 3.32 for the first, 2.16 for the second.

Going from MLWVQRKRRPKETSECPSDKDKSP [R10P] to MLWVQRKRRRKECSECPSDKDKSP [T13C], the protein stability index falls from 4.27 to 2.42.

Going from MLWVQRKRRRKETSECPSDKDISP [K22I] to MLWVQRKRRRKETSEMPSDKDKSP [C16M], the protein stability index rises from 2.61 to 3.84.

First: MLWVQRKRRRKETSECPSDKDFSP [K22F]
Second: MLWVQNKRRRKETSECPSDKDKSP [R6N]
The protein stability index of the first is lower: 2.66 for the first, 3.87 for the second.

Compared with MLWVQRKRRRPETSECPSDKDKSP [K11P], MLWVQSKRRRKETSECPSDKDKSP [R6S] is higher in protein stability index: 3.34 for the first, 3.42 for the second.

Compared with MLWVQRKRRRTETSECPSDKDKSP [K11T], MLWVHRKRRRKETSECPSDKDKSP [Q5H] is higher in protein stability index: 2.73 for the first, 2.97 for the second.

First: MLWVQRKRRRKETSECPSDKLKSP [D21L]
Second: MLWVQRKRLRKETSECPSDKDKSP [R9L]
The protein stability index of the first is lower: 2.29 for the first, 3.08 for the second.

Going from MLWVQRKRRRKETSECPSDKDKIP [S23I] to MLWVQRKRRRKETSEKPSDKDKSP [C16K], the protein stability index rises from 2.4 to 3.41.

Compared with CLWVQRKRRRKETSECPSDKDKSP [M1C], MLWVQRKRRRKETSECESDKDKSP [P17E] is lower in protein stability index: 3.06 for the first, 2.41 for the second.

First: MLWVQRKRRRKETSECPSCKDKSP [D19C]
Second: MLWVQRKRRRDETSECPSDKDKSP [K11D]
The protein stability index of the first is lower: 2.76 for the first, 3.46 for the second.

Going from MLWVQRKRRDKETSECPSDKDKSP [R10D] to MLWVQRKRRRKETSECPHDKDKSP [S18H], the protein stability index falls from 4.11 to 2.85.

Compared with MLWVQRLRRRKETSECPSDKDKSP [K7L], MLWVQRKRFRKETSECPSDKDKSP [R9F] is higher in protein stability index: 1.73 for the first, 3.64 for the second.

First: MLWVQRRRRRKETSECPSDKDKSP [K7R]
Second: MLWVQRKRRRKSTSECPSDKDKSP [E12S]
The protein stability index of the first is lower: 3.29 for the first, 3.45 for the second.

First: MLWVQRCRRRKETSECPSDKDKSP [K7C]
Second: MLWVQRKRRRKETSECPSDQDKSP [K20Q]
The protein stability index of the first is lower: 2.31 for the first, 2.46 for the second.

Going from MLWVQRKRRRKETSECNSDKDKSP [P17N] to MLWVQRKRRAKETSECPSDKDKSP [R10A], the protein stability index rises from 3.23 to 3.85.

First: MLWNQRKRRRKETSECPSDKDKSP [V4N]
Second: MLWVQHKRRRKETSECPSDKDKSP [R6H]
The protein stability index of the first is higher: 3.87 for the first, 2.88 for the second.
